According to US12060408B2, “Screening assays, modulators and modulation of activation of Receptor for Advanced Glycation End-products (RAGE)” (Monash University, priority 2017, dated 2024):

Target: T1, IQGAP-1 (Cricetulus griseus, UniProt A0A8C2MPD4)
T1 construct: 5×10^7 CHO cells stably transfected with Hs-AT1R were lysed using RIPA buffer; endogenous in cells; host or cells: lysate of CHO cells stably transfected with Hs-AT1R
Assay: Pull-down on column coated with S391A-RAGE362-404, proteomic analysis
Assay type: binding
Conditions: lysate of CHO cells stably transfected with Hs-AT1R; NiNTA column; FIG. 11C
Procedure: The TAT-Cherry-S391A-RAGE362-404 peptide and TAT-mCherry control peptide were bound to a gravity flow NiNTA column, and equilibrated using lysis buffer (50 mM Tris pH 7.5, 300 mM NaCl, 5 mM βB-mercaptoethanol, 10 mM imidazole. 5×10^7 CHO cells stably transfected with Hs-AT1R were lysed using RIPA buffer (1×PBS supplemented with 1% NP-40, 0.5% Na-deoxycholate with protease and phosphatase inhibitors), diluted to 50 ml in lysis buffer and passed over the Ni-NTA column twice by gravity flow. The 1 ml column was washed extensively (200 ml wash buffer-50 mM Tris pH 7.4, 300 mM NaCl, 5 mM β-mercaptoethanol, 20 mM imidazole). After washing, 2 ml of elution buffer (50 mM Tris pH 7.4, 300 mM NaCl, 5 mM β-mercaptoethanol, 250 mM imidazole) was applied to the column, and used to elute proteins that had bound to either the A peptide or TAT-mCherry control peptide. 1 ml of sample was delivered for proteomic analysis by Mass Spectroscopy. Venny 2.1.0 was used to generate lists of the proteins differentially bound to the two proteins.

T1 sequence (A0A8C2MPD4 1-1657): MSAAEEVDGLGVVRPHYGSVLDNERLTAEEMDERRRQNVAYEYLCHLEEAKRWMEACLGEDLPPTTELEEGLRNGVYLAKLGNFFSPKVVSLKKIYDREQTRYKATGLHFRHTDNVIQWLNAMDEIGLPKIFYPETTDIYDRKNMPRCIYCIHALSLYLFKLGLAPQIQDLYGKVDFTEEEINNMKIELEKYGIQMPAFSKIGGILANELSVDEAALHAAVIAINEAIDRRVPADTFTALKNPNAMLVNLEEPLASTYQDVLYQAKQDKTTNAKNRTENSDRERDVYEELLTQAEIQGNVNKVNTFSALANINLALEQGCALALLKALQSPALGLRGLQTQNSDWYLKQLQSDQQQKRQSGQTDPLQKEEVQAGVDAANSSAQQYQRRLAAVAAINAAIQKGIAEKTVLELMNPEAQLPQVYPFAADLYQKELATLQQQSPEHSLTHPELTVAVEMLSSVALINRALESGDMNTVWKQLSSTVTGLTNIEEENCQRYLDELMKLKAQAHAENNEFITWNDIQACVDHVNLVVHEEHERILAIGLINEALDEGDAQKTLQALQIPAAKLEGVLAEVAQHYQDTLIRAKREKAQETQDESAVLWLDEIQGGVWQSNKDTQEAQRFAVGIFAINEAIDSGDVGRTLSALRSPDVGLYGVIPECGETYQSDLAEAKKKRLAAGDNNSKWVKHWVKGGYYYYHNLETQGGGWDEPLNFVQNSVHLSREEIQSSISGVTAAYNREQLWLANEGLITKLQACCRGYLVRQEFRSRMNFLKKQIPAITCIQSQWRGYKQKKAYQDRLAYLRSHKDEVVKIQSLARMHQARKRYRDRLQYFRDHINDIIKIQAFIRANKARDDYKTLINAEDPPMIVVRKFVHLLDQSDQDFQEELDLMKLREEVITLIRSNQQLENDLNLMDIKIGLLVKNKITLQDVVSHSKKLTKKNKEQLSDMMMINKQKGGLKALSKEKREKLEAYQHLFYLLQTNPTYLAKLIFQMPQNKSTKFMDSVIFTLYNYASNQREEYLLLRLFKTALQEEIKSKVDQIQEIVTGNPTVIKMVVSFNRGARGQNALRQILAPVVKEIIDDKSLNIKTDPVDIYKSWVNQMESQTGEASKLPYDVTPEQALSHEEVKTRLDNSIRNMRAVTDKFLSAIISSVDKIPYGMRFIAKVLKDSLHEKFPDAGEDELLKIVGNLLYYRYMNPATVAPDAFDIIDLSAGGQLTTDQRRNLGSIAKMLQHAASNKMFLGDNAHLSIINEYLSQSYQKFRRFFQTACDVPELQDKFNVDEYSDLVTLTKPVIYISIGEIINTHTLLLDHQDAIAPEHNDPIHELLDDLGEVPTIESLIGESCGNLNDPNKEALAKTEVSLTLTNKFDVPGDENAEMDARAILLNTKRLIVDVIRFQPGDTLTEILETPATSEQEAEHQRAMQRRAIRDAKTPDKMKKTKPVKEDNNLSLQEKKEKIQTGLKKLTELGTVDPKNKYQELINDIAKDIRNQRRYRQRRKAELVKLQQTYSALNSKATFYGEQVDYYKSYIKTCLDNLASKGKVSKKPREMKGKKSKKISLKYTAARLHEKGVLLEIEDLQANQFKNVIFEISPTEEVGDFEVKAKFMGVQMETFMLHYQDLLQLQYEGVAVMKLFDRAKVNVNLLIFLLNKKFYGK

L362WQRRQRRGEERKAPENQEEEEERAELNQAEEPEAGESSTGGP404 (LWQRRQRRGEERKAPENQEEEEERAELNQAEEPEAGESSTGGP; listed as Homo sapiens) [S391A-RAGE362-404, S391A mutant RAGE cytosolic tail; non-functional substitute for RAGE]
association with IQGAP-1 (pull-down): preferentially associates with IQGAP-1
